Experimental data from patent US20240000938A1 (A2 BIOTHERAPEUTICS, published 2024).

B1: HA-1(H) peptide VLHDDLLEA (peptide)
peptide: VLHDDLLEA
B2: HA-1 Ftcr blocker (TCR, V domains shown)
V domain 1: KNEVEQSPQNLTAQEGEFITINCSYSVGISALHWLQQHPGGGIVSLFMLSSGKKKHGRLIATINIQEKHSSLHITASHPRDSAVYICAVRSVSGAGSYQLTFGKGTKLSVIP
V domain 2: DTGVSQNPRHKITKRGQNVTFRCDPISEHNRLYWYRQTLGQGPEFLTYFQNEAQLEKSRLLSDRFSAERPKGSFSTLEIQRTEQGDSAMYLCASSIDSFNEQFFGPGTRLTVLE

How the values were obtained:
HLA-A*02 on cells = HLA-A*02 on cells (human); assay: cell-based or functional assay
[1] = target: HLA-A*02 / HA-1(H) peptide … on T2 cells (human); assay: cell-based or functional assay

| Binder | EC50 right shift of the NY-ESO-1 TCR (HLA-A*02 on cells) [fold] | Emax shifted downward (KRAS TCR) [1] [fold] | Emax shifted downward (NY-ESO-1 TCR) [1] [fold] | additional right shift in activity of the NY-ESO-1 TCR [1] [fold] | block of KRAS TCR activity [1] [fold] |
| --- | --- | --- | --- | --- | --- |
| B1 | ~30 | – | – | – | – |
| B2 | – | 2.7 | 1.5 | ~10 | ~5 |
